Assay results from patent publication US20260167699A1 (Chugai, published 2026).

target: T1, FcγRIIIaV (human, UniProt P08637 17-208); test: SPR (Biacore), antibody captured, FcγR as analyte, 1:1 Langmuir fit
T1 construct: extracellular domain
T1 sequence (P08637 other isoform, or with tags, fused parts or gaps): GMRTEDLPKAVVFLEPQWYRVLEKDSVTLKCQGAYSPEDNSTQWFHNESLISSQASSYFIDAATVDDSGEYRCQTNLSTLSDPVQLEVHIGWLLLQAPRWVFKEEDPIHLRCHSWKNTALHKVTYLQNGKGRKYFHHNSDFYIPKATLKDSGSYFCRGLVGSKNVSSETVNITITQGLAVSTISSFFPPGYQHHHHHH
Protocol: The antibody of interest was analyzed for its interaction with FcγR using a BiaCore™ T100, BiaCore™ A100, or BiaCore™ 4000 surface plasmon resonance system (GE Healthcare Japan Corp.). The running buffer used was HBS-EP+ (GE Healthcare Japan Corp.). The assay temperature was set to 25° C. The sensor chips used were: a chip prepared by immobilizing antigenic peptides onto Series S Sensor Chip CM5 (GE Healthcare Japan Corp.) by the amine coupling method; a chip prepared by immobilizing antigenic peptides biotinylated in advance onto Series S Sensor Chip SA (certified) (GE Healthcare Japan Corp.) through their interaction; a chip prepared by immobilizing protein L (ACTIGEN, BioVision, Inc.) onto Series S Sensor Chip CM5 (GE Healthcare Japan Corp.); and a chip prepared by immobilizing protein A/G (Thermo Fisher Scientific K.K.) onto Series S Sensor Chip CM5 (GE Healthcare Japan Corp.). The antibody of interest was captured onto any of these chips and allowed to interact with FcγR diluted with a running buffer. The antibody captured on the chip was washed off through the reaction of 10 mM glycine-HCl (pH 1.5) to regenerate the chip, which was repetitively used.

| Binder | Kd [nM] |
| --- | --- |
| HI076-L3-9 (antibody, human IgG1, kappa, heterodimerized anti-EREG antibody: altered H240-Hl076 chain (Gly/Ser peptide in loop) with H240-Kn125 and L73-k0; also called Hl076-L3-9) heavy 1: QDQLVQSGAEVKKPGASVKVSCKASGFNIKDTYIQWVRQAPGQGLEWMGRIDPLRKQTKYREKFEGRVTITADTSTNTAYMELSSLRSEDTAVYYCVRSGREFDYWGQGTLVTVSSASTKGPSVFPLAPSSKSTSGGTAALGCLVKDYFPEPVTVSWNSGALTSGVHTFPAVLQSSGLYSLSSVVTVPSSSLGTQTYICNVNHKPSNTKVDKKVEPKSCDKTHTCPPCPAPELLGGPSVFLFPPKPKDTLMISRTPEVTCVVVDVSHEEPEVKFNWYVDGVEVHNAKTKPREEQYNSTGGSGGSGGSYRVVSVLTVLHQDWLNGKEYKCKVSNDALPMPIEETISKAKGQPREPQVYTLPPSRCELTKNQVSLSCAVKGFYPSDIAVEWESNGQPENNYKTTPPVLDSDGSFFLVSKLTVDKSRWQQGNVFSCSVMHEALHNHYTQKSLSLSP heavy 2: QDQLVQSGAEVKKPGASVKVSCKASGFNIKDTYIQWVRQAPGQGLEWMGRIDPLRKQTKYREKFEGRVTITADTSTNTAYMELSSLRSEDTAVYYCVRSGREFDYWGQGTLVTVSSASTKGPSVFPLAPSSKSTSGGTAALGCLVKDYFPEPVTVSWNSGALTSGVHTFPAVLQSSGLYSLSSVVTVPSSSLGTQTYICNVNHKPSNTKVDKKVEPKSCDKTHTCPPCPAPEYQWGPMVFLFPPKPKDTLMISRTPEVTCVVVDVSDEEPEVKFNWYVDGVEVHNAKTKPREEQYNATYRVVSVLTVLHQDWLNGKEYKCKVSNKALPAPIEKTISKAKGQPREPQVCTLPPSRDELTKNQVSLWCLVKGFYPSDIAVEWESNGQPENNYKTTPPVLDSDGSFFLYSKLTVDKSRWQQGNVFSCSVMHEALHNHYTQKSLSLSP light: DIQMTQSPSSLSASVGDRVTITCRASQDIHKYIAWYQQKPGQAPRLLIQYTSTLQPGVPSRFSGSGSGTDYTFTISSLQPEDIATYYCLQYEQLRTFGGGTKVEIKRTVAAPSVFIFPPSDEQLKSGTASVVCLLNNFYPREAKVQWKVDNALQSGNSQESVTEQDSKDSTYSLSSTLTLSKADYEKHKVYACEVTHQGLSSPVTKSFNRGEC | 7.3 |
| Kn125-L4-GS7 (antibody, human IgG1, kappa, heterodimerized anti-EREG antibody: altered H240-Kn125 chain (Gly/Ser peptide in loop) with H240-Hl076 and L73-k0) heavy 1: QDQLVQSGAEVKKPGASVKVSCKASGFNIKDTYIQWVRQAPGQGLEWMGRIDPLRKQTKYREKFEGRVTITADTSTNTAYMELSSLRSEDTAVYYCVRSGREFDYWGQGTLVTVSSASTKGPSVFPLAPSSKSTSGGTAALGCLVKDYFPEPVTVSWNSGALTSGVHTFPAVLQSSGLYSLSSVVTVPSSSLGTQTYICNVNHKPSNTKVDKKVEPKSCDKTHTCPPCPAPELLGGPSVFLFPPKPKDTLMISRTPEVTCVVVDVSHEEPEVKFNWYVDGVEVHNAKTKPREEQYNSTYRVVSVLTVLHQDWLNGKEYKCKVSNDALPMPIEETISKAKGQPREPQVYTLPPSRCELTKNQVSLSCAVKGFYPSDIAVEWESNGQPENNYKTTPPVLDSDGSFFLVSKLTVDKSRWQQGNVFSCSVMHEALHNHYTQKSLSLSP heavy 2: QDQLVQSGAEVKKPGASVKVSCKASGFNIKDTYIQWVRQAPGQGLEWMGRIDPLRKQTKYREKFEGRVTITADTSTNTAYMELSSLRSEDTAVYYCVRSGREFDYWGQGTLVTVSSASTKGPSVFPLAPSSKSTSGGTAALGCLVKDYFPEPVTVSWNSGALTSGVHTFPAVLQSSGLYSLSSVVTVPSSSLGTQTYICNVNHKPSNTKVDKKVEPKSCDKTHTCPPCPAPEYQWGPMVFLFPPKPKDTLMISRTPEVTCVVVDVSDEEPEVKFNWYVDGVEVHNAKTKPREEQYNATYRVVSVLTVLHQDWLNGKEYKCKVSNGGSGGGSPIEKTISKAKGQPREPQVCTLPPSRDELTKNQVSLWCLVKGFYPSDIAVEWESNGQPENNYKTTPPVLDSDGSFFLYSKLTVDKSRWQQGNVFSCSVMHEALHNHYTQKSLSLSP light: DIQMTQSPSSLSASVGDRVTITCRASQDIHKYIAWYQQKPGQAPRLLIQYTSTLQPGVPSRFSGSGSGTDYTFTISSLQPEDIATYYCLQYEQLRTFGGGTKVEIKRTVAAPSVFIFPPSDEQLKSGTASVVCLLNNFYPREAKVQWKVDNALQSGNSQESVTEQDSKDSTYSLSSTLTLSKADYEKHKVYACEVTHQGLSSPVTKSFNRGEC | 2 |
| Kn125-L4-GS11 (antibody, human IgG1, kappa, heterodimerized anti-EREG antibody: altered H240-Kn125 chain (Gly/Ser peptide in loop) with H240-Hl076 and L73-k0) heavy 1: QDQLVQSGAEVKKPGASVKVSCKASGFNIKDTYIQWVRQAPGQGLEWMGRIDPLRKQTKYREKFEGRVTITADTSTNTAYMELSSLRSEDTAVYYCVRSGREFDYWGQGTLVTVSSASTKGPSVFPLAPSSKSTSGGTAALGCLVKDYFPEPVTVSWNSGALTSGVHTFPAVLQSSGLYSLSSVVTVPSSSLGTQTYICNVNHKPSNTKVDKKVEPKSCDKTHTCPPCPAPELLGGPSVFLFPPKPKDTLMISRTPEVTCVVVDVSHEEPEVKFNWYVDGVEVHNAKTKPREEQYNSTYRVVSVLTVLHQDWLNGKEYKCKVSNDALPMPIEETISKAKGQPREPQVYTLPPSRCELTKNQVSLSCAVKGFYPSDIAVEWESNGQPENNYKTTPPVLDSDGSFFLVSKLTVDKSRWQQGNVFSCSVMHEALHNHYTQKSLSLSP heavy 2: QDQLVQSGAEVKKPGASVKVSCKASGFNIKDTYIQWVRQAPGQGLEWMGRIDPLRKQTKYREKFEGRVTITADTSTNTAYMELSSLRSEDTAVYYCVRSGREFDYWGQGTLVTVSSASTKGPSVFPLAPSSKSTSGGTAALGCLVKDYFPEPVTVSWNSGALTSGVHTFPAVLQSSGLYSLSSVVTVPSSSLGTQTYICNVNHKPSNTKVDKKVEPKSCDKTHTCPPCPAPEYQWGPMVFLFPPKPKDTLMISRTPEVTCVVVDVSDEEPEVKFNWYVDGVEVHNAKTKPREEQYNATYRVVSVLTVLHQDWLNGKEYKCKVSNGGSGGGSGGGSPIEKTISKAKGQPREPQVCTLPPSRDELTKNQVSLWCLVKGFYPSDIAVEWESNGQPENNYKTTPPVLDSDGSFFLYSKLTVDKSRWQQGNVFSCSVMHEALHNHYTQKSLSLSP light: DIQMTQSPSSLSASVGDRVTITCRASQDIHKYIAWYQQKPGQAPRLLIQYTSTLQPGVPSRFSGSGSGTDYTFTISSLQPEDIATYYCLQYEQLRTFGGGTKVEIKRTVAAPSVFIFPPSDEQLKSGTASVVCLLNNFYPREAKVQWKVDNALQSGNSQESVTEQDSKDSTYSLSSTLTLSKADYEKHKVYACEVTHQGLSSPVTKSFNRGEC | 1.5 |
| Kn125-L4-6 (antibody, human IgG1, kappa, heterodimerized anti-EREG antibody: altered H240-Kn125 chain (Gly/Ser peptide in loop) with H240-Hl076 and L73-k0) heavy 1: QDQLVQSGAEVKKPGASVKVSCKASGFNIKDTYIQWVRQAPGQGLEWMGRIDPLRKQTKYREKFEGRVTITADTSTNTAYMELSSLRSEDTAVYYCVRSGREFDYWGQGTLVTVSSASTKGPSVFPLAPSSKSTSGGTAALGCLVKDYFPEPVTVSWNSGALTSGVHTFPAVLQSSGLYSLSSVVTVPSSSLGTQTYICNVNHKPSNTKVDKKVEPKSCDKTHTCPPCPAPELLGGPSVFLFPPKPKDTLMISRTPEVTCVVVDVSHEEPEVKFNWYVDGVEVHNAKTKPREEQYNSTYRVVSVLTVLHQDWLNGKEYKCKVSNDALPMPIEETISKAKGQPREPQVYTLPPSRCELTKNQVSLSCAVKGFYPSDIAVEWESNGQPENNYKTTPPVLDSDGSFFLVSKLTVDKSRWQQGNVFSCSVMHEALHNHYTQKSLSLSP heavy 2: QDQLVQSGAEVKKPGASVKVSCKASGFNIKDTYIQWVRQAPGQGLEWMGRIDPLRKQTKYREKFEGRVTITADTSTNTAYMELSSLRSEDTAVYYCVRSGREFDYWGQGTLVTVSSASTKGPSVFPLAPSSKSTSGGTAALGCLVKDYFPEPVTVSWNSGALTSGVHTFPAVLQSSGLYSLSSVVTVPSSSLGTQTYICNVNHKPSNTKVDKKVEPKSCDKTHTCPPCPAPEYQWGPMVFLFPPKPKDTLMISRTPEVTCVVVDVSDEEPEVKFNWYVDGVEVHNAKTKPREEQYNATYRVVSVLTVLHQDWLNGKEYKCKVSNKGGSGGSALPAPIEKTISKAKGQPREPQVCTLPPSRDELTKNQVSLWCLVKGFYPSDIAVEWESNGQPENNYKTTPPVLDSDGSFFLYSKLTVDKSRWQQGNVFSCSVMHEALHNHYTQKSLSLSP light: DIQMTQSPSSLSASVGDRVTITCRASQDIHKYIAWYQQKPGQAPRLLIQYTSTLQPGVPSRFSGSGSGTDYTFTISSLQPEDIATYYCLQYEQLRTFGGGTKVEIKRTVAAPSVFIFPPSDEQLKSGTASVVCLLNNFYPREAKVQWKVDNALQSGNSQESVTEQDSKDSTYSLSSTLTLSKADYEKHKVYACEVTHQGLSSPVTKSFNRGEC | 1.7 |
| Kn125-L2a-3 (antibody, human IgG1, kappa, heterodimerized anti-EREG antibody: altered H240-Kn125 chain (Gly/Ser peptide in loop) with H240-Hl076 and L73-k0) heavy 1: QDQLVQSGAEVKKPGASVKVSCKASGFNIKDTYIQWVRQAPGQGLEWMGRIDPLRKQTKYREKFEGRVTITADTSTNTAYMELSSLRSEDTAVYYCVRSGREFDYWGQGTLVTVSSASTKGPSVFPLAPSSKSTSGGTAALGCLVKDYFPEPVTVSWNSGALTSGVHTFPAVLQSSGLYSLSSVVTVPSSSLGTQTYICNVNHKPSNTKVDKKVEPKSCDKTHTCPPCPAPELLGGPSVFLFPPKPKDTLMISRTPEVTCVVVDVSHEEPEVKFNWYVDGVEVHNAKTKPREEQYNSTYRVVSVLTVLHQDWLNGKEYKCKVSNDALPMPIEETISKAKGQPREPQVYTLPPSRCELTKNQVSLSCAVKGFYPSDIAVEWESNGQPENNYKTTPPVLDSDGSFFLVSKLTVDKSRWQQGNVFSCSVMHEALHNHYTQKSLSLSP heavy 2: QDQLVQSGAEVKKPGASVKVSCKASGFNIKDTYIQWVRQAPGQGLEWMGRIDPLRKQTKYREKFEGRVTITADTSTNTAYMELSSLRSEDTAVYYCVRSGREFDYWGQGTLVTVSSASTKGPSVFPLAPSSKSTSGGTAALGCLVKDYFPEPVTVSWNSGALTSGVHTFPAVLQSSGLYSLSSVVTVPSSSLGTQTYICNVNHKPSNTKVDKKVEPKSCDKTHTCPPCPAPEYQWGPMVFLFPPKPKDTLMISRTPEVTCVVVDVSDEGGSEPEVKFNWYVDGVEVHNAKTKPREEQYNATYRVVSVLTVLHQDWLNGKEYKCKVSNKALPAPIEKTISKAKGQPREPQVCTLPPSRDELTKNQVSLWCLVKGFYPSDIAVEWESNGQPENNYKTTPPVLDSDGSFFLYSKLTVDKSRWQQGNVFSCSVMHEALHNHYTQKSLSLSP light: DIQMTQSPSSLSASVGDRVTITCRASQDIHKYIAWYQQKPGQAPRLLIQYTSTLQPGVPSRFSGSGSGTDYTFTISSLQPEDIATYYCLQYEQLRTFGGGTKVEIKRTVAAPSVFIFPPSDEQLKSGTASVVCLLNNFYPREAKVQWKVDNALQSGNSQESVTEQDSKDSTYSLSSTLTLSKADYEKHKVYACEVTHQGLSSPVTKSFNRGEC | 10 |
